US20030060605A1 (LA JOLLA INSTITUTE FOR ALLERGY AND IMMUNOLOGY, published 2003)

What was measured:
[1] = molecular target: HVEM:Fc fusion protein (extracellular region of HVEM, 1 to K184, fused to the Fc of human IgG1) (human) (UniProt Q92956); assay: SPR (BIAcore 1000)
[2] = molecular target: LTβR on the surface of human cells (HT29, NHDF) (human) (UniProt P36941); assay: cell-based or functional assay
human LTβR:Fc (human) [3] = molecular target: human LTβR:Fc (human) (UniProt P36941); assay: SPR (BIAcore 1000), receptor:Fc amine-coupled to CM5, LIGHT mutant as analyte
[4] = molecular target: HVEM:Fc fusion protein (extracellular region of HVEM, 1 to K184, fused to the Fc of human IgG1) (human) (UniProt Q92956); assay: as above
[5] = molecular target: HVEM:Fc fusion protein (extracellular region of HVEM, 1 to K184, fused to the Fc of human IgG1) (human) (UniProt Q92956); assay: ELISA, receptor:Fc coated as capture (150 ng/well), FLAG-tagged ligand, M2 anti-FLAG and goat anti-mouse HRP, OD 415 [panel human HVEM:Fc]
[6] = molecular target: p30 (LIGHT), the 30 kDa cell surface HVEM ligand of activated II-23.D7 T hybridoma cells and human T cells (human) (UniProt O43557); assay: competition flow cytometry: II-23.D7 cells activated with PMA and ionomycin, pre-incubated with the Fc protein, then HVEM:Fc-rabbit 2 µg/ml, goat anti-rabbit IgG-PE; competitor displaced: HVEM:rbFc [lower graph]
Chain of p30 (LIGHT), the 30 kDa cell surface HVEM ligand of activated II-23.D7 T hybridoma cells and human T cells (human) (O43557 whole entry, the tested form may be a part): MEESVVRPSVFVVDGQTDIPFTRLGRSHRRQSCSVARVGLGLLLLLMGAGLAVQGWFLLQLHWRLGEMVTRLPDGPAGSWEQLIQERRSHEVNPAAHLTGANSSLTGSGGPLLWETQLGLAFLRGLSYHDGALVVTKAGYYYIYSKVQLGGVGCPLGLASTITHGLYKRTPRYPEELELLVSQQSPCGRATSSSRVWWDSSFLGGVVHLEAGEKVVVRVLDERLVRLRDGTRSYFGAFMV

[7] = molecular target: mouse HVEM:Fc (extracellular region of mouse HVEM, Met1 to Ser205, fused to the Fc of human IgG1) (mouse; human) (UniProt Q80WM9); assay: ELISA, receptor:Fc coated as capture (150 ng/well), FLAG-tagged ligand, M2 anti-FLAG and goat anti-mouse HRP, OD 415 [panel mouse HVEM:Fc]
human LTβR:Fc (human) [8] = molecular target: human LTβR:Fc (human) (UniProt P36941); assay: ELISA, receptor:Fc coated as capture (150 ng/well), FLAG-tagged ligand, M2 anti-FLAG and goat anti-mouse HRP, OD 415 [panel Human LTβR:Fc]
human LTβR:Fc (human) [9] = molecular target: human LTβR:Fc (human) (UniProt P36941); assay: SPR (BIAcore 1000), receptor:Fc amine-coupled to CM5, LIGHT as analyte 100-500 nM
[10] = molecular target: HVEM:Fc fusion protein (extracellular region of HVEM, 1 to K184, fused to the Fc of human IgG1) (human) (UniProt Q92956); assay: as above
[11] = molecular target: mouse LTβR:Fc (residues 1 to Met221 of the extracellular domain of mouse LTβR) (mouse) (UniProt P50284); assay: ELISA, receptor:Fc as capture, M2 anti-FLAG detection
Chain of mouse LTβR:Fc (residues 1 to Met221 of the extracellular domain of mouse LTβR) (mouse) (P50284 31-221): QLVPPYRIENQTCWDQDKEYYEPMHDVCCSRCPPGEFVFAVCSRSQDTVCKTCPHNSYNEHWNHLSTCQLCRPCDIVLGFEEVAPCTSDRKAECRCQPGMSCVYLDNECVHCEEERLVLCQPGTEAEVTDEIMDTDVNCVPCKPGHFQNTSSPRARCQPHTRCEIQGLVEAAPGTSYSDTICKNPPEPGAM

[12] = molecular target: mouse HVEM:Fc (extracellular region of mouse HVEM, Met1 to Ser205, fused to the Fc of human IgG1) (mouse; human) (UniProt Q80WM9); assay: as above
[13] = molecular target: T1, HVEM:Fc fusion protein (extracellular region of HVEM, 1 to K184, fused to the Fc of human IgG1) (human, UniProt Q92956 39-184); assay: competition flow cytometry: HVEM:Fc 2 µg/ml pre-incubated with the gD-1 protein 30 min at 4 C, then added to II-23.D7 cells activated with PMA and ionomycin (p30 on the cells) [lower graph]
T1 construct: range 1-184; Made in the baculovirus vector pVL1392; Residues 1-184 include the signal peptide; also called huHVEM:Fc; hu HVEM:Fc; not shown: Fc of human IgG1
T1 sequence (looked up): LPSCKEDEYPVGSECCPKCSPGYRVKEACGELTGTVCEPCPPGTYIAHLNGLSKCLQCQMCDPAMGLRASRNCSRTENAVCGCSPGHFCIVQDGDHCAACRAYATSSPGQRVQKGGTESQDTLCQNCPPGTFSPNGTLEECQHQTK

[14] = molecular target: LTβR on the surface of human cells (HT29, NHDF) (human, UniProt P36941 31-435); assay: cell-based or functional assay

Molecule: LIGHTt66-FLAG mutant Y173F (ligand)
- Kd [1]: 180 nM
- fold lower affinity than LIGHT t66 [1]: > 40 fold
- 50% cell death of HT29 cells (MTT, 72 h, with IFNγ) [2]: 0.001 µM
- up-regulation of ICAM expression by NHDF cells (fold induction, flow cytometry) [2]: 2.5 fold
- Kd (human LTβR:Fc (human) [3]): 31 nM
- koff (human LTβR:Fc (human) [3]): 0.0011 s⁻¹
- kon (human LTβR:Fc (human) [3]): 37000 M⁻¹ s⁻¹
- Kd [4]: 173 nM
- koff [4]: 0.0033 s⁻¹
- kon [4]: 19000 M⁻¹ s⁻¹

Molecule: LIGHTt66-FLAG mutant L120Q (ligand)
- 50% cell death of HT29 cells (MTT, 72 h, with IFNγ) [2]: 10 µM
- EC50 (read off the curve) [5]: 0.08 nM

Molecule: LTβR:Fc (as printed in Examples 1 to 4; human or mouse not said) (Fc fusion)
- IC50 (read off the curve) [6]: 10 µg/mL

Molecule: LIGHTt66-FLAG mutant Q117T (ligand)
- 50% cell death of HT29 cells (MTT, 72 h, with IFNγ) [2]: 10 µM
- EC50 (read off the curve) [7]: 0.9 nM
- Kd (human LTβR:Fc (human) [3]): 1.5 nM
- koff (human LTβR:Fc (human) [3]): 4.5e-05 s⁻¹
- Kd [4]: 0.3 nM
- kon [4]: 20000 M⁻¹ s⁻¹

Molecule: LIGHTt66-FLAG, recombinant soluble homotrimeric LIGHT lacking the N-terminal 66 amino acids (ligand)
- IC50 for inhibition of pp28 expression (HCMV infected NHDF, western blot) [2]: 0.4 nM
- concentration that completely inhibits the cytopathic effect of HCMV [2]: 100 pM
- dose for 50% cytotoxicity to HT29 cells (MTT, with IFNγ) [2]: 10 to 100 pM
- up-regulation of ICAM expression by NHDF cells (fold induction, flow cytometry) [2]: 4 fold
- EC50 (read off the curve) (human LTβR:Fc (human) [8]): 0.3 nM
- Kd (human LTβR:Fc (human) [9]): 4.5 nM
- koff (human LTβR:Fc (human) [9]): 0.00012 s⁻¹
- kon (human LTβR:Fc (human) [9]): 27000 M⁻¹ s⁻¹
- Kd [10]: 3.9 nM
- koff [10]: 4.8e-05 s⁻¹
- kon [10]: 12000 M⁻¹ s⁻¹
- fold lower affinity (against the human receptors) [11]: 10 fold
- fold lower affinity (against the human receptors) [12]: 10 fold

Molecule: LIGHTt66-FLAG mutant G119E (ligand)
- fold lower affinity than LIGHT t66 [1]: 30 fold
- up-regulation of ICAM expression by NHDF cells (fold induction, flow cytometry) [2]: < 1.5 fold
- Kd [4]: 114 nM
- koff [4]: 0.002 s⁻¹
- kon [4]: 18000 M⁻¹ s⁻¹

B1: gD-1 (Δ290-299t), mutant of soluble HSV gD-1 (ligand)
chain: KYALVDASLKMADPNRFRGKDLPVLDQLTDPPGVRRVYHIQAGLPDPFQPPSLPITVYYAVLERACRSVLLNAPSEAPQIVRGASEDVRKQPYNLTIAWFRMGGNCAIPITVMEYTECSYNKSLGACPIRTQPRWNYYDSFSAVSEDNLGFLMHAPAFETAGTYLRLVKINDWTEITQFILEHRAKGSCKYALPLRIPPSACLSPQAYQQGVTVDSIGMLPRFIPENQRTVAVYSLKIAGWHGPKAPYTSTLLPPELSETPNATQPELAPEDPEDSALLEDPVGTVAPQQDAATPY
- IC50 (read off the curve) [13]: ~6 µg/mL

B2: recombinant soluble LTα1β2 (ligand)
chain 1: LPGVGLTPSAAQTARQHPKMHLAHSTLKPAAHLIGDPSKQNSLLWRANTDRAFLQDGFSLSNNSLLVPTSGIYFVYSQVVFSGKAYSPKATSSPLYLAHEVQLFSSQYPFHVPLLSSQKMVYPGLQEPWLHSMYHGAAFQLTQGDQLSTHTDGIPHLVLSPSTVFFGAFAL
chain 2: QDQGGLVTETADPGAQAQQGLGFQKLPEEEPETDLSPGLPAAHLIGAPLKGQGLGWETTKEQAFLTSGTQFSDAEGLALPQDGLYYLYCLVGYRGRAPPGGGDPQGRSVTLRSSLYRAGGAYGPGTPELLLEGAETVTPVLDPARRQGYGPLWYTSVGFGGLVQLRRGERVYVNISHPDMVDFARGKTFFGAVMVG
- IC50 for inhibition of pp28 expression (HCMV infected NHDF, western blot) [14]: 1 nM

B3: soluble HSV gD-1 (glycoprotein D of HSV-1) (ligand)
chain: KYALVDASLKMADPNRFRGKDLPVLDQLTDPPGVRRVYHIQAGLPDPFQPPSLPITVYYAVLERACRSVLLNAPSEAPQIVRGASEDVRKQPYNLTIAWFRMGGNCAIPITVMEYTECSYNKSLGACPIRTQPRWNYYDSFSAVSEDNLGFLMHAPAFETAGTYLRLVKINDWTEITQFILEHRAKGSCKYALPLRIPPSACLSPQAYQQGVTVDSIGMLPRFIPENQRTVAVYSLKIAGWHGPKAPYTSTLLPPELSETPNATQPELAPEDPEDSALLEDPVGTVAPQIPPNWHIPSIQDAATPY
- IC50 (read off the curve) [13]: ~20 µg/mL
